Assay results from patent CN117683122A (SHENZHEN BAY LABORATORY; UNIV TSINGHUA, dated 2024).

target: 重组猴痘病毒表面蛋白B6R-His (monkeypox virus, UniProt P0DTN2 20-279)

Row | Binder | Kd
1 | 抗体B010 (antibody, V domains shown) VH: QVQLLDSGGGLVQPGGSLRLSCAASGFTFSSYAMHWVRQAPGKGLEWVAVISYDGSNKYYADSVKGRFTISRDNSKNTLYLQMNSLRAEDTAVYYCAQGWFDYWGQGTTVTVSS VL: NIQMTQSPSTLSASVGDRVTITCRASQSIGPWLAWYQQKPGKAPKLLIYKASSLESGVPSRFSGSGSGTEFTLTISSLQPEDFATYHCQQYKSYPYSFGQGTKVDIKR | < 1 nM
2 | 抗体B089 (antibody, V domains shown) VH: EVQLLESGGGVVQPGRSLRLSCAASGFTFSSYAMHWVRQAPGKGLEWVAVISYDGSNKYYADSVKGRFTISRDNSKNTLYLQMNSLRAEDTAVYYCARFSGAYSYGYGVYWGQGTPVTVSS VL: DIQLTQSPSFLSASVGDNVTITCRASQGIASRLAWYQQKPGKAPNLLISSSSTLQSGVPSRFTGSGYGTEFTLTMNTLQPEDSATYYCQQLNSYPLTFGGGTKVEIKR | < 1 nM
3 | 抗体B161 (antibody, V domains shown) VH: QVQLLESGGGLVKPGGSLRLSCAASGFTFSSYSMSWVRQAPGKGLEWVSSISGGSDYIYYADPVRGRFTISRDNAKNSVYLQMNSLRAEDTAVYYCGRGITGIFNWGQGTPVTVSS VL: DIQLTQSPSSLSASVGDRVTITCRASQSINNYLNWYQQKPGKAPKVLIYAASSLPRGVPSRFSGSGSGTDFTLTISSLQPEDFASYYCQQSYTSPLTFGQGTKVEVKR | < 1 nM
4 | 抗体B083 (antibody, V domains shown) VH: EVQLLESGGGVVRPGGSLRLSCAASGFTFGDYGMSWVRQAPGKGLEWVSGINWNGGSTGYADSVKGRFTISRDNAKNSLYLQMNSLRVEDSGVYYCARYGRVPDNWGQGTMVTVSS VL: NIQLTQSPSSLSASVGDRVTITCRASQGVNNWLAWYQQKPGKAPKLLIYAASTLESGVPSRFSGSGSATDFTLTINGLQPEDFATYYCQQAKRFPWTFGQGTKVEIKR | < 1 nM
5 | 抗体B019 (antibody, V domains shown) VH: QVQLLESGGTLVQPGGSLRLSCAASGFSFRTHDMNWVRQAPGKGLEWVSHISSTGSTIYYADSVKGRFTISRDNAKNSLYLQMNSLRADDTAVYYCARDRFTIFGVGPPFYYMDVWGQGTLVTVSS VL: DIQLTQSPSSLSASVGDRVTITCRASQGISSYLAWYQQKPGKAPKLLIYAASTLQSGVPSRFSGSGSGTDFTLTISSLQPEDFATYYCQQSYSTPRTFGQGTKVEIKR | < 1 nM
6 | 抗体B026 (antibody, V domains shown) VH: EVQLLESGGGVVQPGNSLRLSCAASGFTFSSYNMNWVRQAPGKGLEWVSSISSRSSYIYYADSVKGRFTISRDNAKNTLYLQMSSLRSEDTAVYFCVRRNGAFDIWGQGTMVTVSS VL: DIQMTQSPSSLSASVGDRVTITCRASQSITTYLNWYQQKPGKAPKLLIYAASSLQSGVPSRFSGSGSGTDFTLTISSLQPEDFATYYCQQSYGIPRTFGQGTKVEIKR | < 1 nM
